Experimental data as given in article PMC10786891, “Massively parallel profiling of RNA-targeting CRISPR-Cas13d”.
Changes are numbered by the printed parent chain. In names and notes the source's numbering stands.

Biological target: T1, EsCas13d, nuclease-dead (Eubacterium siraeum, UniProt B0MS50, R295A;H300A;R849A;H854A)
T1 sequence: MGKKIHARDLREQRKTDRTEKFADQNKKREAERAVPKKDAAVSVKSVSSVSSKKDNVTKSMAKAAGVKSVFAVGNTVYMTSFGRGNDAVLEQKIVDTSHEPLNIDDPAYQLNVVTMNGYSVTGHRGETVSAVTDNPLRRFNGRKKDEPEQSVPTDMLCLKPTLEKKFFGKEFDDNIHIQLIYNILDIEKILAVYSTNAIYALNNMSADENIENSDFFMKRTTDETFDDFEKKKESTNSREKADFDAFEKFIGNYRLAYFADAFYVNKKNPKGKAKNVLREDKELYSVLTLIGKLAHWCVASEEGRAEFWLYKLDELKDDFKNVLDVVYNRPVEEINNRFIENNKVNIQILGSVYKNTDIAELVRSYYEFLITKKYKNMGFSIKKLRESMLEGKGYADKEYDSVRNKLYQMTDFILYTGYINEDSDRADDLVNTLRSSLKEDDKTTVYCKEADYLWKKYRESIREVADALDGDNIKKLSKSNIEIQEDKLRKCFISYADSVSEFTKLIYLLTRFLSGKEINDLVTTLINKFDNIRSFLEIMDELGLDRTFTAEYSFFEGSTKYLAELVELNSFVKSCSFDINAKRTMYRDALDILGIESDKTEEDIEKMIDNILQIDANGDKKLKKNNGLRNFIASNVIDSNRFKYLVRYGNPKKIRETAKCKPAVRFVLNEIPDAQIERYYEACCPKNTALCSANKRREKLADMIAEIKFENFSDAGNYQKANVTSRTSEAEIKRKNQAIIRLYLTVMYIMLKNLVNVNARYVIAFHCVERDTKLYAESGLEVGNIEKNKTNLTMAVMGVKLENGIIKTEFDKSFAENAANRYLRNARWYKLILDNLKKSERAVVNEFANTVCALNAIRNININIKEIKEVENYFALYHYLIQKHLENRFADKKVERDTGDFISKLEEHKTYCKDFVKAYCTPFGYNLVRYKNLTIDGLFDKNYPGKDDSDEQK
Assay: crRNA (strand 1, pre-loaded); Mg2+; 40 mM Tris-HCl pH 7.5, 150 mM NaCl, 6 mM MgCl2, 1 mM DTT, 0.1% Tween-20, 0.2 mg/ml BSA; 25 C; 10 min per concentration, then washed
Settings: tags: His6-TwinStrep-SUMO cleaved; N-terminal SNAP kept (SNAP-Surface 488); label: 3' end held by stalled T7 RNA polymerase

B1: target 1 G15A,G17A (mixed)
RNA 1: CACCCGUGCAAAAAUGCAGGGGUCUAAAACUGAGCGGAUAACCUCUCUAUGG
RNA 2: GGGAAUGGAUCCACAUCUACGAAUUCGUACCAUAAAAAGGUUAUCCGCUCACCGAGAUCGGAAGAGCACACGU
Kd: 80 ± 15 nM

B2: target 1 insU 3' of 20,insU 3' of 4 (mixed)
RNA 1: B1 RNA 1
RNA 2: GGGAAUGGAUCCACAUCUACGAAUUCGUACCAUUAGAGAGGUUAUCCGCUUCACCGAGAUCGGAAGAGCACACGU
Kd: 10.6 ± 1.2 nM

B3: target 1 insG 3' of 16,insG 3' of 6 (mixed)
RNA 1: B1 RNA 1
RNA 2: B2 RNA 2 with U34A, A35G, G36A, A37G, C49G, U50C
Kd: 24.3 ± 1.9 nM

B4: target 1 A1C,C7U (mixed)
RNA 1: B1 RNA 1
RNA 2: B1 RNA 2 with A35G, A37G, C45U, A51C
Kd: 9.6 ± 0.9 nM

B5: target 1 insC 3' of 18,insG 3' of 9 (mixed)
RNA 1: B1 RNA 1
RNA 2: B2 RNA 2 with U34A, A35C, U45G, C46U, G48C, C49G, U50C
Kd: 59 ± 11 nM

B6: target 1 insU 3' of 5,insA 3' of 2 (mixed)
RNA 1: B1 RNA 1
RNA 2: GGGAAUGGAUCCACAUCUACGAAUUCGUACCAUAGAGAGGUUAUCCGUCUCAACCGAGAUCGGAAGAGCACACGU
Kd: 11 ± 0.5 nM

B7: target 1 C4G,C7A (mixed)
RNA 1: B1 RNA 1
RNA 2: B1 RNA 2 with A35G, A37G, C45A, C48G
Kd: 7.1 ± 0.4 nM

B8: target 1 insA 3' of 22,insG 3' of 4 (mixed)
RNA 1: B1 RNA 1
RNA 2: B2 RNA 2 with C31A, A32C, U33A, U50G
Kd: 9.6 ± 0.6 nM

B9: target 1 C2U,A18U (mixed)
RNA 1: B1 RNA 1
RNA 2: B1 RNA 2 with A34U, A35G, A37G, C50U
Kd: 21.2 ± 1.5 nM

B10: target 1 insG 3' of 7,insG 3' of 4 (mixed)
RNA 1: B1 RNA 1
RNA 2: B6 RNA 2 with C46G, G47C, U48G, U50G, C51U, A52C
Kd: 6.23 ± 0.3 nM

B11: target 1 insU 3' of 5,insC 3' of 1 (mixed)
RNA 1: B1 RNA 1
RNA 2: B6 RNA 2 with A53C
Kd: 21.6 ± 2.4 nM

B12: target 1 insC 3' of 22,insU 3' of 21 (mixed)
RNA 1: B1 RNA 1
RNA 2: GGGAAUGGAUCCACAUCUACGAAUUCGUACCCUAUAGAGAGGUUAUCCGCUCACCGAGAUCGGAAGAGCACACGU
Kd: 17.1 ± 1 nM

B13: target 1 U3A,U19G (mixed)
RNA 1: B1 RNA 1
RNA 2: B1 RNA 2 with U33G, A35G, A37G, U49A
Kd: 50 ± 5 nM

B14: target 1 insC 3' of 22,insG 3' of 20 (mixed)
RNA 1: B1 RNA 1
RNA 2: B12 RNA 2 with U33A, A34G
Kd: 23.2 ± 2.3 nM

B15: target 1 insC 3' of 12,insU 3' of 6 (mixed)
RNA 1: B1 RNA 1
RNA 2: B6 RNA 2 with U41C, A43U, U44A, C45U, G47C, C49G, U50C, C51U, A52C
Kd: 16.4 ± 0.7 nM

B16: target 1 insG 3' of 16,insU 3' of 5 (mixed)
RNA 1: B1 RNA 1
RNA 2: B2 RNA 2 with U34A, A35G, G36A, A37G, C49U, U50C
Kd: 15.5 ± 1.4 nM

B17: target 1 A1U,C7U (mixed)
RNA 1: B1 RNA 1
RNA 2: B1 RNA 2 with A35G, A37G, C45U, A51U
Kd: 9.1 ± 1.3 nM

B18: target 1 insU 3' of 20,insU 3' of 18 (mixed)
RNA 1: B1 RNA 1
RNA 2: B12 RNA 2 with C32A, A34U, U35A, A36U
Kd: 33 ± 5 nM

B19: target 1 insC 3' of 13,insC 3' of 3 (mixed)
RNA 1: B1 RNA 1
RNA 2: B6 RNA 2 with G40C, U41G, A43U, U44A, C45U, G47C, U48G, A52C
Kd: 13.8 ± 0.7 nM

B20: target 1 insU 3' of 22,insG 3' of 3 (mixed)
RNA 1: B1 RNA 1
RNA 2: B2 RNA 2 with C31U, A32C, U33A, U51G
Kd: 25.3 ± 1.7 nM

B21: target 1 insC 3' of 10,insU 3' of 2 (mixed)
RNA 1: B1 RNA 1
RNA 2: B6 RNA 2 with A43C, U44A, C45U, G47C, U48G, A52U
Kd: 23.9 ± 2.3 nM

B22: target 1 insU 3' of 15,insU 3' of 6 (mixed)
RNA 1: B1 RNA 1
RNA 2: B2 RNA 2 with U34A, A35G, G36A, A37G, G38U, G48U, C49G, U50C
Kd: 35.6 ± 3.2 nM

B23: target 1 insG 3' of 6,insU 3' of 5 (mixed)
RNA 1: B1 RNA 1
RNA 2: B6 RNA 2 with U48G, C49U, U50C, C51U, A52C
Kd: 5.6 ± 0.6 nM

B24: target 1 C4G,C22G (mixed)
RNA 1: B1 RNA 1
RNA 2: B1 RNA 2 with C30G, A35G, A37G, C48G
Kd: 16.1 ± 2.3 nM

B25: target 1 C2A,C22U (mixed)
RNA 1: B1 RNA 1
RNA 2: B1 RNA 2 with C30U, A35G, A37G, C50A
Kd: ~30 nM

B26: target 1 insA 3' of 15,insA 3' of 5 (mixed)
RNA 1: B1 RNA 1
RNA 2: B2 RNA 2 with U34A, A35G, G36A, A37G, G38A, C49A, U50C
Kd: 15.9 ± 2 nM

B27: target 1 G13A,G15C (mixed)
RNA 1: B1 RNA 1
RNA 2: B1 RNA 2 with A35G, A37C, G39A
Kd: 36 ± 9 nM

B28: target 1 insU 3' of 17,insC 3' of 10 (mixed)
RNA 1: B1 RNA 1
RNA 2: B2 RNA 2 with U34A, A35G, G36U, A44C, U45A, C46U, G48C, C49G, U50C
Kd: ~50 nM

B29: target 1 U11C,A14C (mixed)
RNA 1: B1 RNA 1
RNA 2: B1 RNA 2 with A35G, A37G, A38C, U41C
Kd: 86 ± 22 nM
